{"source": "patent US20240239864A1", "molecular_target": "HLA-A2 (HLA-A*02:01) on cells (T2 cells; K562A2 cells) (human)", "test": "T2 peptide-binding assay: T2 cells with peptide at 100 µg/mL overnight, surface HLA-A2 by flow cytometry (T2 only: 3.34E+05)", "details": "remark: other sources report otherwise", "data": [{"binder": "NTDNNLAVY (peptide, UniProt Q5H943 52-60, looked up)", "note": "[KKLC1 p52-60 peptide (HLA-A1 restricted control), Q5H943 52-60]", "values": [{"measurement": "Mean Fluorescence Intensity (surface HLA-A2)", "value": 305000}]}]}
